Source: PMC9536601 (2022)

B1: bovine prothrombin (FII) (natural protein)
chain: not shown
modifications: gamma-carboxylated glutamate residues in the Gla domain
B2: Ad6 hexon, on wild-type human adenovirus type 6 virions (natural protein)
chain: ATPSMMPQWSYMHISGQDASEYLSPGLVQFARATETYFSLNNKFRNPTVAPTHDVTTDRSQRLTLRFIPVDREDTAYSYKARFTLAVGDNRVLDMASTYFDIRGVLDRGPTFKPYSGTAYNALAPKGAPNSCEWEQNETAQVDAQELDEEENEANEAQAREQEQAKKTHVYAQAPLSGIKITKEGLQIGTADATVAGAGKEIFADKTFQPEPQVGESQWNEADATAAGGRVLKKTTPMKPCYGSYARPTNSNGGQGVMVEQNGKLESQVEMQFFSTSTNATNEVNNIQPTVVLYSEDVNMETPDTHLSYKPKMGDKNAKVMLGQQAMPNRPNYIAFRDNFIGLMYYNSTGNMGVLAGQASQLNAVVDLQDRNTELSYQLLLDSIGDRTRYFSMWNQAVDSYDPDVRIIENHGTEDELPNYCFPLGGIGITDTFQAVKTTAANGDQGNTTWQKDSTFAERNEIGVGNNFAMEINLNANLWRNFLYSNIALYLPDKLKYNPTNVEISDNPNTYDYMNKRVVAPGLVDCYINLGARWSLDYMDNVNPFNHHRNAGLRYRSMLLGNGRYVPFHIQVPQKFFAIKNLLLLPGSYTYEWNFRKDVNMVLQSSLGNDLRVDGASIKFDSICLYATFFPMAHNTASTLEAMLRNDTNDQSFNDYLSAANMLYPIPANATNVPISIPSRNWAAFRGWAFTRLKTKETPSLGSGYDPYYTYSGSIPYLDGTFYLNHTFKKVAITFDSSVSWPGNDRLLTPNEFEIKRSVDGEGYNVAQCNMTKDWFLVQMLANYNIGYQGFYIPESYKDRMYSFFRNFQPMSRQVVDDTKYKDYQQVGIIHQHNNSGFVGYLAPTMREGQAYPANVPYPLIGKTAVDSITQKKFLCDRTLWRIPFSSNFMSMGALTDLGQNLLYANSAHALDMTFEVDPMDEPTLLYVLFEVFDVVRVHQPHRGVIETVYLRTPFSAGNATT
B3: bovine coagulation factor X (natural protein)
chain 1: ANSFLEEVKQGNLERECLEEACSLEEAREVFEDAEQTDEFWSKYKDGDQCEGHPCLNQGHCKDGIGDYTCTCAEGFEGKNCEFSTREICSLDNGGCDQFCREERSEVRCSCAHGYVLGDDSKSCVSTERFPCGKFTQGRS
chain 2: WAIHTSEDALDASELEHYDPADLSPTESSLDLLGLNRTEPSAGEDGSQVVRIVGGRDCAEGECPWQALLVNEENEGFCGGTILNEFYVLTAAHCLHQAKRFTVRVGDRNTEQEEGNEMAHEVEMTVKHSRFVKETYDFDIAVLRLKTPIRFRRNVAPACLPEKDWAEATLMTQKTGIVSGFGRTHEKGRLSSTLKMLEVPYVDRSTCKLSSSFTITPNMFCAGYDTQPEDACQGDSGGPHVTRFKDTYFVTGIVSWGEGCARKGKFGVYTKVSNFLKWIDKIMKARAGAAGSRGHSEAPATWTVPPPLPL
modifications: gamma-carboxylated glutamate residues in the Gla domain
B4: mouse prothrombin (FII) (natural protein)
chain: not shown
modifications: gamma-carboxylated glutamate residues in the Gla domain
B5: human coagulation factor X (natural protein)
chain 1: ANSFLEEMKKGHLERECMEETCSYEEAREVFEDSDKTNEFWNKYKDGDQCETSPCQNQGKCKDGLGEYTCTCLEGFEGKNCELFTRKLCSLDNGDCDQFCHEEQNSVVCSCARGYTLADNGKACIPTGPYPCGKQTLER
chain 2: SVAQATSSSGEAPDSITWKPYDAADLDPTENPFDLLDFNQTQPERGDNNLTRIVGGQECKDGECPWQALLINEENEGFCGGTILSEFYILTAAHCLYQAKRFKVRVGDRNTEQEEGGEAVHEVEVVIKHNRFTKETYDFDIAVLRLKTPITFRMNVAPACLPERDWAESTLMTQKTGIVSGFGRTHEKGRQSTRLKMLEVPYVDRNSCKLSSSFIITQNMFCAGYDTKQEDACQGDSGGPHVTRFKDTYFVTGIVSWGEGCARKGKYGIYTKVTAFLKWIDRSMKTRGLPKAKSHAPEVITSSPLK
modifications: gamma-carboxylated glutamate residues in the Gla domain

Columns and labels:
Test in all cases: SPR
[1] = target: T1, Ad1 hexon, on wild-type human adenovirus type 1 virions (human adenovirus type 1)
T1 chain: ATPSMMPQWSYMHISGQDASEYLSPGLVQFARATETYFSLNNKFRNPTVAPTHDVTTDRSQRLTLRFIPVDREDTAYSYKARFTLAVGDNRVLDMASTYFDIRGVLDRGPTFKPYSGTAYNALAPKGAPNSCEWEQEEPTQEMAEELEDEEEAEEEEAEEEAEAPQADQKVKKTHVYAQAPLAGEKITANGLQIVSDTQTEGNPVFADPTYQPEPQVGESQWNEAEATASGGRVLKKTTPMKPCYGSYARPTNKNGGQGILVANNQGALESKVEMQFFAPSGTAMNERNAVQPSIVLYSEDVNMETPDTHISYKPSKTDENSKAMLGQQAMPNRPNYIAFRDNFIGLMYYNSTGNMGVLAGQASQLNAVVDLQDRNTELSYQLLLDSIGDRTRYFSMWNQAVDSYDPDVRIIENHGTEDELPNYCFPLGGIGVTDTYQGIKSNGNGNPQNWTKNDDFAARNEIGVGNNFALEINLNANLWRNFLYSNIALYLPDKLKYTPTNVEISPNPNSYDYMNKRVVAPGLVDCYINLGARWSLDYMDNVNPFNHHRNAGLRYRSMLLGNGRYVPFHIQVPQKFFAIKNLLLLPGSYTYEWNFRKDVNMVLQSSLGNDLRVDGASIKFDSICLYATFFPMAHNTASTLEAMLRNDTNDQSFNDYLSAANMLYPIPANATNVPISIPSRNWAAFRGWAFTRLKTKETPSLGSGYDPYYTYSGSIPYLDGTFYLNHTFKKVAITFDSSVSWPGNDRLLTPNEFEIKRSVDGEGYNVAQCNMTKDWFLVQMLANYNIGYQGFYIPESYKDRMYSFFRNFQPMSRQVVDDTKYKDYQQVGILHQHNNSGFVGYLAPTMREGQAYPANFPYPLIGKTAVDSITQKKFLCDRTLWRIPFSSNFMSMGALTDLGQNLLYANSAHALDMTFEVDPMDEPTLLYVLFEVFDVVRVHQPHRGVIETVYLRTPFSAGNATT

[2] = target: human prothrombin (FII) (human, UniProt P00734 44-622, gamma-carboxylated glutamate residues in the Gla domain)
[3] = target: T2, Ad2 hexon, on wild-type human adenovirus type 2 virions (human adenovirus type 2, UniProt P03277 1-968)
T2 chain: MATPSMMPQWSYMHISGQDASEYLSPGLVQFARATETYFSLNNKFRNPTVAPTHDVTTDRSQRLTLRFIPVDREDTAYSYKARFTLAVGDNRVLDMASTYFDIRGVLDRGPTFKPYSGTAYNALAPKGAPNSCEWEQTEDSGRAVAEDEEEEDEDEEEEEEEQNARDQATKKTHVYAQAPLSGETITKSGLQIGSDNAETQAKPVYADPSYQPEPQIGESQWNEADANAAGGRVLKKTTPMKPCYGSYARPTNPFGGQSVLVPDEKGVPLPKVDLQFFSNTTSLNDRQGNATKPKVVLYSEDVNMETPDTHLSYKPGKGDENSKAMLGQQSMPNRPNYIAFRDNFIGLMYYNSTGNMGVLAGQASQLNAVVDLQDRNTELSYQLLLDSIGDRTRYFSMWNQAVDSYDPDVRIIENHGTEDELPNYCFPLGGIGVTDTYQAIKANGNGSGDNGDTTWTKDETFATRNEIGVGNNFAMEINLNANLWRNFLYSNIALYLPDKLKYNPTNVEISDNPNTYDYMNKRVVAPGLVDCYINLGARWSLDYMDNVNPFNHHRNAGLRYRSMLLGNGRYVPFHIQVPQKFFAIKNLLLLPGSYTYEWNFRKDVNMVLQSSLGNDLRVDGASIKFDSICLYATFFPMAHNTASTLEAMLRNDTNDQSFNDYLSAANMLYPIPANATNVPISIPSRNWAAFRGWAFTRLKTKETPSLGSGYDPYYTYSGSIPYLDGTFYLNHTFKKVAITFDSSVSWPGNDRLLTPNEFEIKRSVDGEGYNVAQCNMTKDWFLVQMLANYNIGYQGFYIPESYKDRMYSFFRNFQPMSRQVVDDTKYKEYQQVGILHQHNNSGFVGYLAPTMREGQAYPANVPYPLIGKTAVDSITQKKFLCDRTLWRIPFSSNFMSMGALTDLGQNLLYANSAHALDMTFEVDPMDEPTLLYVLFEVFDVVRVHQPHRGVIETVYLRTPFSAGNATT

[4] = target: B2
[5] = target: T3, Ad5 hexon, on wild-type human adenovirus type 5 virions (human adenovirus type 5, UniProt P04133 2-952)
T3 chain: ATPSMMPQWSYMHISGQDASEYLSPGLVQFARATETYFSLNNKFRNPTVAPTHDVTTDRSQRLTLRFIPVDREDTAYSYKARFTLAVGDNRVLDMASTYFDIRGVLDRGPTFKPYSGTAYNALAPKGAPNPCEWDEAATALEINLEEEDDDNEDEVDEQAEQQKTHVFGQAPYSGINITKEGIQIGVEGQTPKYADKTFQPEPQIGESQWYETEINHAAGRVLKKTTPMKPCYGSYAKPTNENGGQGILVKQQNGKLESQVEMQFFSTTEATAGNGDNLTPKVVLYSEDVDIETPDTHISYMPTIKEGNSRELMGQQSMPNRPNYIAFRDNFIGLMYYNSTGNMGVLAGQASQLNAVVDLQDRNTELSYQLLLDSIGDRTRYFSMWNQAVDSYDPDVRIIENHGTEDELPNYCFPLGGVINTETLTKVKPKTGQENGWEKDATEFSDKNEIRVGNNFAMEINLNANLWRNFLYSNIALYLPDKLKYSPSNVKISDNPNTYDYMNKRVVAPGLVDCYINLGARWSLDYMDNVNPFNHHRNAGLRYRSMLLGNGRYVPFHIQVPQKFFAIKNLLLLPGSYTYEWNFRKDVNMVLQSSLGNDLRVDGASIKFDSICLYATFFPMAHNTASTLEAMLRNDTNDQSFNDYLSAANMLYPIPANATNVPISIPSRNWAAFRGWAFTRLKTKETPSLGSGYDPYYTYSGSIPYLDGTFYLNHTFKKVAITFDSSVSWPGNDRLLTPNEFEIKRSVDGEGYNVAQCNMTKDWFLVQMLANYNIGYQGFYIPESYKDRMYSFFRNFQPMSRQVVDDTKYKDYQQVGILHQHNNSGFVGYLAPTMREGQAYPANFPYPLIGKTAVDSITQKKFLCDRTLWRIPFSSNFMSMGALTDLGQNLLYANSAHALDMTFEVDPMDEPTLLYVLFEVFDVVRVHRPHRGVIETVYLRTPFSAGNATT

B1
Kd [1]: 37 nM

B2
Kd [2]: 2.7 nM

B3
Kd [3]: 73 nM
Kd [1]: 160 nM
Kd [4]: 100 nM

B4
Kd [1]: 14 nM

B5
Kd [1]: 220 nM
Kd [4]: 28 nM
Kd [5]: 0.74 nM
